This test deals with NA of A/California/04/2009 (A/H1N1pdm09) (Influenza A virus A/California/04/2009 …, strain). Description: ELISA. To be noted: one partner purified.

B1: DA05A30 (antibody, V domains shown)
VH: EVQLVESGAEVKKPGESLKISCQGSGYRFSSHWIVWVRQMPGKGLEWMGIIYPGDSDTRYSPSFQGQVTISTDKSNAYLQWSSLKASDTGMYYCARHPQPYGSGYYGEFDYWGQGTLVTVSS
VL: DIQMTQPPSVSGAPGQRVTISCTGSSSNIGAGYDVYWYQQFPGTAPKLLIYANDNRPSGVPDRFSGSKSGTSASLVITGLQAEDEADYYCQSYDSSLSGSVVFGGGTKLTVL
With B1, the binding result is listed as “binds”.
